Here are results for four substances from patent US20240018201A1.

Test [1] has as its target human TNF alpha (Miltenyi, from yeast, Catalog no. 130-094) (human) (UniProt P01375). The experiment in a line: SPR, Biacore 8K. A general note: In SPR one partner is held on a chip, and binding of the other changes the refractive index at the surface.
Test [2] has the same target. Briefly: SPR, Biacore 8K (column head prints nM; koff/kon gives this number in M).
The target of test [3] is Llama Anti-human LC-kappa VHH Single Domain Antibody [Biotin] (CAT #: NABG-118). Briefly: BLI, biotinylated VHH ligand on streptavidin biosensor. Background: In BLI a coated tip is dipped into the sample, and binding shifts an interference pattern.

Sequence of UniProt P01375 (P01375 77-233 limits assumed): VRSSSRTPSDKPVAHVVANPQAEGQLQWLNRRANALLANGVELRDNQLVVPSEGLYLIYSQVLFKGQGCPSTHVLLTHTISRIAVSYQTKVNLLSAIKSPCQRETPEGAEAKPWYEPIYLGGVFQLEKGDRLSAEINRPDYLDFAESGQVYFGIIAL

For “Adalimumab variant with Gln199Trp light chains (L234A/L235A Fc) (antibody)”, in test [1], the % KD to wildtype stood at 99.4%, the % koff to wildtype was 96.1%, the % kon to wildtype was 96.1% and the koff is 0.000208 s⁻¹. The substance further gave a kon in test [1] of 3.94e+06 M⁻¹ s⁻¹. This substance showed a Kd in test [2] of 0.0528 nM. The substance further came in with a % Response BLI of construct in comparison to wildtype (=% Binding to Kappa-ligand) in test [3] of 1.66%.
As to “Adalimumab variant with His198Arg light chains (L234A/L235A Fc) (antibody)”, in test [1], the % KD to wildtype was determined as 104%, the % koff to wildtype amounted to 92.7%, the % kon to wildtype came to 92.7% and the koff was determined as 0.00021 s⁻¹. The substance also had a kon in test [1] of 3.8e+06 M⁻¹ s⁻¹. The substance further came in with a Kd in test [2] of 0.0553 nM. The substance also returned a % Response BLI of construct in comparison to wildtype (=% Binding to Kappa-ligand) in test [3] of 7.87%.
As to “Adalimumab variant with Thr109Arg + Ser202Arg light chains (L234A/L235A Fc) (antibody)”, in test [1], the % KD to wildtype worked out at 110%, the % koff to wildtype was found to be 90.5%, the % kon to wildtype worked out at 90.5% and the koff amounted to 0.000216 s⁻¹. For the same substance, the kon in test [1] is 3.71e+06 M⁻¹ s⁻¹. The Kd in test [2] amounted to 0.0583 nM. Further, the % Response BLI of construct in comparison to wildtype (=% Binding to Kappa-ligand) in test [3] worked out at 12.5%.
Consider “Adalimumab with WT light chain (no mutations) and L234A/L235A human IgG Fc variant (antibody)”, for which, in test [2], the Kd was found to be 0.0531 nM. This substance also had a % Response BLI of construct in comparison to wildtype (=% Binding to Kappa-ligand) in test [3] of 100%.

Broadly, the koff is the rate constant with which the complex falls apart. As a reminder, the kon is the second-order rate constant of association. Low values mean slow association, high ones fast association. The Kd is the free concentration of one partner at which half of the binding sites on the other are occupied at equilibrium, for simple one-to-one binding.
